{"source": "patent US20040214255A1", "about": "(MYRIAD GENETICS, published 2004)", "binders": {"B1": {"name": "PI-3 kinase p110 subunit, amino acids 1-300 (enzyme)", "chain": "MCFSFIMPPAMADILDIWAVDSQIASDGSIPVDFLLPTGIYIQLEVPREATISYIKQMLWKQVHNYPMFNLLMDIDSYMFACVNQTAVYEELEDETRRLCDVRPFLPVLKLVTRSCDPGEKLDSKIGVLIGKGLHEFDSLKDPEVNEFRRKMRKFSEEKILSLVGLSWMDWLKQTYPPEHEPSIPENLEDKLYGGKLIVAVHFENCQDVFSFQVSPNMNPIKVNELAIQKRLTIHGKEDEVSPYDYVLQVSGRVEYVFGDHPLIQFQYIRNCVMNRALPHFILVECCKIKKMYEQEMIAI", "notes": "range 1-300; also called PI-3K110; p110 catalytic subunit of PI-3 kinase"}, "B2": {"name": "Clathrin Assembly Protein (CALM), amino acids 267-484 (other, human, UniProt Q13492 267-484, looked up)", "chain": "LSQAPSSLLDALEQHLASLEGKKIKDSTAASRATTLSNAVSSLASTGLSLTKVDEREKQAALEEEQARLKALKEQRLKELAKKPHTSLTTAASPVSTSAGGIMTAPAIDIFSTPSSSNSTSKLPNDLLDLQQPTFHPSVHPMSTASQVASTWGDPFSATVDAVDDAIPSLNPFLTKSSGDVHLSISSDVSTFTTRTPTHEMFVGFTPSPVAQPHPSAG", "notes": "range 267-484"}, "B3": {"name": "Proteosome Activator Subunit Psme3, amino acids 72-254 (other, human, UniProt P61289 72-254, looked up)", "chain": "LTNSHDGLDGPTYKKRRLDECEEAFQGTKVFVMPNGMLKSNQQLVDIIEKVKPEIRLLIEKCNTVKMWVQLLIPRIEDGNNFGVSIQEETVAELRTVESEAASYLDQISRYYITRAKLVSKIAKYPHVEDYRRTVTEIDEKEYISLRLIISELRNQYVTLHDMILKNIEKIKRPRSSNAETLY", "notes": "range 72-254"}, "B4": {"name": "Akt kinase 1 (Akt1), amino acids 1-118 (enzyme, human, UniProt P31749 1-118, looked up)", "chain": "MSDVAIVKEGWLHKRGEYIKTWRPRYFLLKNDGTFIGYKERPQDVDQREAPLNNFSVAQCQLMKTERPRPNTFIIRCLQWTTVIERTFHVETPEEREEWTTAIQTVADGLKKQEEEEM", "notes": "range 1-118"}, "B5": {"name": "Akt kinase 2 (Akt2), amino acids 1-152 (enzyme, human, UniProt P31751 1-152, looked up)", "chain": "MNEVSVIKEGWLHKRGEYIKTWRPRYFLLKSDGSFIGYKERPEAPDQTLPPLNNFSVAECQLMKTERPRPNTFVIRCLQWTTVIERTFHVDSPDEREEWMRAIQMVANSLKQRAPGEDPMDYKCGSPSDSSTTEEMEVAVSKARAKVTMNDF", "notes": "range 1-152"}}, "key": {"[1]": {"target": "T1, 14-3-3-Zeta, amino acids 1-200 (human, UniProt P63104 1-200)", "T1 sequence": "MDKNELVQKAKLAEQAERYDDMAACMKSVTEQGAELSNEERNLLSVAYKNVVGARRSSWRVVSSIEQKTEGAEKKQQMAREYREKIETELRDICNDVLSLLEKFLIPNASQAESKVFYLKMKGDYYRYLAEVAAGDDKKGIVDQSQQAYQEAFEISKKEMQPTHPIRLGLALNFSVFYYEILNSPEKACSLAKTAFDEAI", "assay": "yeast two-hybrid; GLUT4 463-510 with 14-3-3-Zeta 1-200", "from_the_text": "The new construct was selected directly in the yeast strain PNY200 for its ability to drive tryptophane synthesis (genotype of this strain: MATα trp1-901 leu2-3,112 ura3-52 his3-200 ade2 gal4Δ gal80). In these yeast cells, the bait was produced as a C-terminal fusion protein with the DNA binding domain of the transcription factor Ga14 (amino acids 1 to 147). Prey libraries were transformed into the yeast strain BK100 (genotype of this strain: MATα trp1-901 leu2-3,112 ura3-52 his3-200 gal4Δ gal80 LYS2::GAL-HIS3 GAL2-ADE2 met2::GAL7-lacZ), and selected for the ability to drive leucine synthesis. In these yeast cells, each cDNA was expressed as a fusion protein with the transcription activation domain of the transcription factor Ga14 (amino acids 768 to 881) and a 9 amino acid hemagglutinin epitope tag. PNY200 cells (MATα mating type), expressing the bait, were then mated with BK100 cells (MATa mating type), expressing prey proteins from a prey library. The resulting diploid yeast cells expressing proteins interacting with the bait protein were selected for the ability to synthesize tryptophan, leucine, histidine, and adenine. […]"}, "[2]": {"target": "T2, Alpha-SNAP, amino acids 36-241 (human, UniProt P54920 36-241)", "T2 construct": "range 36-241", "T2 sequence (looked up)": "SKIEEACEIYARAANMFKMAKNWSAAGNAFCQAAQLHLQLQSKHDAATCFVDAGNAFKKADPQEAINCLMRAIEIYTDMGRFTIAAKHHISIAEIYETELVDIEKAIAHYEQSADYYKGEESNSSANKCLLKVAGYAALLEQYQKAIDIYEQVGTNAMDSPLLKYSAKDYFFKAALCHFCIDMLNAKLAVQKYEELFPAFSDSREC", "assay": "yeast two-hybrid", "from_the_text": "(§1) The new construct was selected directly in the yeast strain PNY200 for its ability to drive tryptophane synthesis (genotype of this strain: […] trp1-901 leu2-3,112 ura3-52 his3-200 ade2 gal4Δ gal80). In these yeast cells, the bait was produced as a C-terminal fusion protein with the DNA binding domain of the transcription factor Ga14 (amino acids 1 to 147). Prey libraries were transformed into the yeast strain BK100 (genotype of this strain: MATα trp1-901 leu2-3,112 ura3-52 his3-200 gal4Δ gal80 LYS2::GAL-HIS3 GAL2-ADE2 met2::GAL7-lacZ), and selected for the ability to drive leucine synthesis. In these yeast cells, each cDNA was expressed as a fusion protein with the transcription activation domain of the transcription factor Ga14 (amino acids 768 to 881) and a 9 amino acid hemagglutinin epitope tag. PNY200 cells (MATα mating type), expressing the bait, were then mated with BK100 cells (MATa mating type), expressing prey proteins from a prey library. The resulting diploid yeast cells expressing proteins interacting with the bait protein were selected for the ability to synthesize tryptophan, leucine, histidine, and adenine. DNA was prepared from each clone, transformed by electroporation into E. coli strain KC8 (Clontech KC8 electrocompetent cells, Catalog No. C2023-1), and the cells were selected on ampicillin-containing plates in the absence of either tryptophane (selection for the bait plasmid) or leucine (selection for the library plasmid). DNA for both plasmids was prepared and sequenced by the dideoxynucleotide chain termination method. The identity of the bait cDNA insert was confirmed and the cDNA insert from the prey library plasmid was identified using the BLAST program to search against public nucleotide and protein databases. Plasmids from the prey library were then individually transformed into yeast cells together with a plasmid driving the synthesis of lamin and 5 other test proteins, respectively, fused to the Ga14 DNA binding domain. Clones that gave a positive signal in the β-galactosidase assay were considered false-positives and discarded. […] Clones that gave a positive signal in the β-galactosidase assay were considered true positives."}, "[3]": {"target": "T3, Clone C-193 (CARP), amino acids 21-302 (human, UniProt Q15327 21-302)", "T3 construct": "range 21-302", "T3 sequence (Q15327 21-302 limits assumed)": "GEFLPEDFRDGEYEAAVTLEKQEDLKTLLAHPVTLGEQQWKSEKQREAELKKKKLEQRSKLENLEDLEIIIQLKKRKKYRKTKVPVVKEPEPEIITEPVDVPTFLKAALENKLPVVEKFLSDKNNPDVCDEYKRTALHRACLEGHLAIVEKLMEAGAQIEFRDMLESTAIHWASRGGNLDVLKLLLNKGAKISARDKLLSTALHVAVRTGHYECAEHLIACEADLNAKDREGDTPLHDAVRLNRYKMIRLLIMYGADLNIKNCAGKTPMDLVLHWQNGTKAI", "assay": "yeast two-hybrid", "from_the_text": "as §1"}, "[4]": {"target": "T4, Beta-catenin, amino acids 579-782 (human, UniProt P35222 579-781)", "T4 construct": "range 579-782", "T4 sequence (looked up)": "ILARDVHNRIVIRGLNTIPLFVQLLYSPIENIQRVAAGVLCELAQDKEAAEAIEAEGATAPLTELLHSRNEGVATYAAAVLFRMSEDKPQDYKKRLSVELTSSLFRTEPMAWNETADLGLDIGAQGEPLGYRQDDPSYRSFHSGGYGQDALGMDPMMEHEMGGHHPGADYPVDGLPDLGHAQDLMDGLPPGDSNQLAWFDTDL", "assay": "yeast two-hybrid", "from_the_text": "as §1"}, "[5]": {"target": "T5, Alpha Acid Glucosidase (GAA), amino acids 513-953 (human, UniProt P10253 513-952)", "T5 construct": "range 513-953", "T5 sequence (P10253 513-952 limits assumed)": "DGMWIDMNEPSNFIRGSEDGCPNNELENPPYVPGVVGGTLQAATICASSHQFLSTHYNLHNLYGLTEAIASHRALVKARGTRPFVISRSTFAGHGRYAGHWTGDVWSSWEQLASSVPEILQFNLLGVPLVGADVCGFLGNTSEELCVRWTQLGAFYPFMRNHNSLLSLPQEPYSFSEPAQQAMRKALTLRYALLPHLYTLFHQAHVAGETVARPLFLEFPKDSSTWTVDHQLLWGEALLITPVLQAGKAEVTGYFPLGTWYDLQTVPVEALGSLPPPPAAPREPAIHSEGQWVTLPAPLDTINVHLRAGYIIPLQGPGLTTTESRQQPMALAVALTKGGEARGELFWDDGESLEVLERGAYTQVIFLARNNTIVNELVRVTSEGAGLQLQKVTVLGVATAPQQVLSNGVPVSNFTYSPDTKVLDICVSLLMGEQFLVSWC", "assay": "yeast two-hybrid", "from_the_text": "as §1"}, "[6]": {"target": "T6, Dynamin, amino acids 250-700 (human, UniProt Q05193 250-700)", "T6 construct": "range 250-700", "T6 sequence (looked up)": "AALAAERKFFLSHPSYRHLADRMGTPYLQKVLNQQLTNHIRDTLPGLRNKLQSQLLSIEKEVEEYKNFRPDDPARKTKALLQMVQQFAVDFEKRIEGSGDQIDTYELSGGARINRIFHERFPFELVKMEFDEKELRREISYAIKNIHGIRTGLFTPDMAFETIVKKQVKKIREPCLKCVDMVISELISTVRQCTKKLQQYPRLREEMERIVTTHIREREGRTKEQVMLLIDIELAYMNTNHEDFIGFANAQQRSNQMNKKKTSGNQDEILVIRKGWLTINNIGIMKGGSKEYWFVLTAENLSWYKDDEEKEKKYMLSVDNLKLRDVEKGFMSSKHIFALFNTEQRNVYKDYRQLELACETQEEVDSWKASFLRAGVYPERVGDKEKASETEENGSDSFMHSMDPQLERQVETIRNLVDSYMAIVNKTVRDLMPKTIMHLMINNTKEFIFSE", "assay": "yeast two-hybrid", "from_the_text": "as §1"}, "[7]": {"target": "T7, NuMA1, amino acids 185-361 (human, UniProt Q14980 185-361)", "T7 construct": "range 185-361; also called nuclear mitotic apparatus protein NuMA1", "T7 sequence (looked up)": "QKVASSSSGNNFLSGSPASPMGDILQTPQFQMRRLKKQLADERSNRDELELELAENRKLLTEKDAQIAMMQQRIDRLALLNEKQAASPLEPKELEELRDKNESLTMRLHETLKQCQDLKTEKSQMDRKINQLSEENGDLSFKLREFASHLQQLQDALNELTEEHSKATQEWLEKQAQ", "assay": "yeast two-hybrid", "from_the_text": "as §1"}, "[8]": {"target": "T8, NuMA1, amino acids 98-365 (human, UniProt Q14980 98-365)", "T8 construct": "range 98-365; also called nuclear mitotic apparatus protein NuMA1", "T8 sequence (looked up)": "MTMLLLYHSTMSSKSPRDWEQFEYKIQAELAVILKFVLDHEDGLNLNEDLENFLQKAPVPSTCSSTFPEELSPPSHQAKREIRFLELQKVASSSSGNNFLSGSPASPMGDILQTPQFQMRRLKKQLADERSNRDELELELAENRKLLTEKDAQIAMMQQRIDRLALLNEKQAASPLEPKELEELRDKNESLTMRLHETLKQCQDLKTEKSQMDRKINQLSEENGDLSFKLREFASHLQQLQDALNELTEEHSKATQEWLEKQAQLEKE", "assay": "yeast two-hybrid", "from_the_text": "as §1"}}}
{"binder": "FTFLRVPETRGRTFDQISAAFHRTPSLLEQEVKPSTELEYLGPDEND (other, human, UniProt P14672 463-509, looked up, range 463-510; also called GLUT4; Glut4)", "note": "[Glucose Transporter 4, amino acids 463-510]", "values": [{"measurement": "binding result", "setting": "[1]", "result": "binds"}, {"measurement": "binding result", "setting": "[2]", "result": "binds"}, {"measurement": "binding result", "setting": "[3]", "result": "binds"}, {"measurement": "binding result", "setting": "[4]", "result": "binds"}]}
{"binder": "B1", "values": [{"measurement": "binding result", "setting": "[5]", "result": "binds"}]}
{"binder": "B2", "values": [{"measurement": "binding result", "setting": "[6]", "result": "binds"}]}
{"binder": "B3", "values": [{"measurement": "binding result", "setting": "[6]", "result": "binds"}]}
{"binder": "B4", "values": [{"measurement": "binding result", "setting": "[7]", "result": "binds"}]}
{"binder": "B5", "values": [{"measurement": "binding result", "setting": "[8]", "result": "binds"}]}
